The values that follow come from the RNAGym collection of RNA variant scans (doi:10.7554/elife.90254).

First the molecules themselves.
B1: LINE1-full (parent)
chain: UACGUAGGUGGUUUUCCCCUGAUAGUGCUAAGGGGGCCUGGAAGUUUGGACUGGGCAGAGCUCAACACAGCGUGGCAAAGUGGCUGUGGCUAGACUGCCUCUCUGGAUUCCUCGUCACUCAGCAGGGCAUCUCUGAGAGAAAUGCC

The variants in this data set derive from B1. Nature of the data set: self-cleavage, relative activity (ratio to wild type); higher = more cleavage; in vitro, sequencing; the parent is a self-cleaving ribozyme.
On to UACGUAGGUGGUUCUCCCCUGAUAGUGCUAAGGGGGCCUGGAAGUUUGGACUGGGCAGAGCUCAACACAGCGGGGCAAAGUGGCUGUGGCUAGACUGCCUCUCUGGAUUCCUCGUCACUCAGCAGGGCAUCUCUGAGAGAAAUGCC [U14C U73G], for which the self-cleavage stood at 1.05.

For UACGUAGGUGGUUCUCCCCUGAUAGUGCUAAGGGGGCCUGGAAGUUUGGACUGGGCAGAGCUCAACACAGCGUGGCAAAGUGGCUGUGGCUAGACUGCCUCUCUGGAUUCCUCGUCACCCAGCAGGGCAUCUCUGAGAGAAAUGCC [U14C U119C], the self-cleavage amounted to 1.29.

Take UACGUAGGUGGUUCUCCCCUGAUAGUGCGAAGGGGGCCUGGAAGUUUGGACUGGGCAGAGCUCAACACAGCGUGGCAAAGUGGCUGUGGCUAGACUGCCUCUCUGGAUUCCUCGUCACUCAGCAGGGCAUCUCUGAGAGAAAUGCC [U14C U29G]: the self-cleavage came to 0.26.

Regarding UACGUAGGUGGUUCUCCCCUGAUAGUGCUAAGGGGGCCUGGAAGUUUGGACUGGGCAGAGCUCAACACAGCGUGGCAAAGUGGCUGUGGCUAGACUGCCUCUCUGGAAUCCUCGUCACUCAGCAGGGCAUCUCUGAGAGAAAUGCC [U14C U108A], the self-cleavage is 0.98.

Take UACGUAGGUGGUUCUCCCCUGAUAGUGCUAAGGGGGCCUGGAAGUUUGGACUGGGCAGAGCUCAACACAGCGUGGCAAAGUGGCAGUGGCUAGACUGCCUCUCUGGAUUCCUCGUCACUCAGCAGGGCAUCUCUGAGAGAAAUGCC [U14C U85A]: the self-cleavage stood at 0.08.

Regarding UACGUAGGUGGUUCUCCCCUGAUAGUGCUAAGGGGGCCUGGAAGUUUGGACUGGGCAGAGCUCAACACAGCGUGGCAAAGUGGCCGUGGCUAGACUGCCUCUCUGGAUUCCUCGUCACUCAGCAGGGCAUCUCUGAGAGAAAUGCC [U14C U85C], the self-cleavage is 0.23.

UACGUAGGUGGUUCUCCCCUGAUAGUGCUAAGGGGGCCUGGAAGUUUGGACUGGGCAGAGCUCAACACAGCGUGGCAAAGUGGCUGUGGCUAGACUGCCUCUCUGGAUUCCGCGUCACUCAGCAGGGCAUCUCUGAGAGAAAUGCC [U14C U112G]: the self-cleavage was determined as 1.75.

Turning to UACGUAGGUGGUUGUCCCCUGAUAGUGCUAAGGGGGCCUGGAAGUUUGGACUGGGCAGAGCUCAACACAGCGUGGCAGAGUGGCUGUGGCUAGACUGCCUCUCUGGAUUCCUCGUCACUCAGCAGGGCAUCUCUGAGAGAAAUGCC [U14G A78G], the self-cleavage was determined as 1.23.

Regarding UACGUAGGUGGUUCUCCCCUGAUAGUGCUAAGGGGGCCUGGAAGUUUGGACUGGGCAGAGCUCAACACAGCGUGGCAAAGCGGCUGUGGCUAGACUGCCUCUCUGGAUUCCUCGUCACUCAGCAGGGCAUCUCUGAGAGAAAUGCC [U14C U81C], the self-cleavage amounted to 1.43.

Turning to UACGUAGGUGGUUCUCCCCUGAUAGUGCUAAGGGGGCCUGGAAGUUUGGACUGGGCAGAGCUCAACACAGCGUGGCAAAGUGGCUGUGGCUAGACUGCCUCUCUGGAUACCUCGUCACUCAGCAGGGCAUCUCUGAGAGAAAUGCC [U14C U109A], the self-cleavage was found to be 1.18.

UACGUAGGUGGUUCUCCCCUGAUAGUGCUAAGGGGGCCUGGAAGUUUGGACUGGGCAGAGCUCAACACAGCGUGGCAAAGUGGCUGUGGCUAGACUGCCUCUCUGGAUGCCUCGUCACUCAGCAGGGCAUCUCUGAGAGAAAUGCC [U14C U109G]: the self-cleavage is 0.65.

In the case of UACGUAGGUGGUUCUCCCCUGAUAGUGCUAAGGGGGCCUGGAAGUUUGGACUGGGCAGAGCUCAACACAGCGUGGCAAAGUGGCUGUGGCUAGACUGCCUCUCUGGAUUCCUCGUCACUCAGCAGGGCAUCUCUGAGAGAAAAGCC [U14C U143A], the self-cleavage amounted to 0.99.

For the variant UACGUAGGUGGUUCUCCCCUGAUAGUGCUAAGGGGGCCUGGAAGUUUGGACUGGGCAGAGCUCAACACAGCGUGGCAAAGUGGCUGUGGCUAGACUGCCUCUCUGGAUUCCUCGUCACUCAGCAGGGCAUCUCUGAGAGAAACGCC [U14C U143C], the self-cleavage came to 1.02.

Consider UACGUAGGUGGUUCUCCCCUGAUAGUGCUAAGGGGGCCUGGAAGUUUGGACUGGGCAGAGCUCAACACAGCGUGGCAAAGUGGCUGUGGCUAGACUGCCUCUCUGGAUUCCUCGUCACUCAGCAGGGCAUCUCUGAGAGAAAGGCC [U14C U143G], for which the self-cleavage worked out at 1.93.

Consider UACGUAGGUGGUUCUCCCCUGAUAGUGCUAAGGGGGCCUGGAAGUUUGGACUGGGCAGAGCUCAACACAGCGUGGCAAAGUGGCUGUGGCUAGACUGCCUCUCUGGAUUCCUCGUCACUCAGCAGGGCACCUCUGAGAGAAAUGCC [U14C U130C], for which the self-cleavage was determined as 1.5.

Take UACGUAGGUGGUUCUCCCCUGAUAGUGCUAAGGGGGCCUGGAAGUUUGGACUGGGCAGAGCUCAACACAGCGUGGCAAAGUGGCUGUGGCUAGACUGCCUCUCUGGAUUCCUCGUCACUCAGCAGGGCAACUCUGAGAGAAAUGCC [U14C U130A]: the self-cleavage was determined as 1.47.

Regarding UACGUAGGUGGUUCUCCCCUGAUAGUGCUAAGGGGGCCCGGAAGUUUGGACUGGGCAGAGCUCAACACAGCGUGGCAAAGUGGCUGUGGCUAGACUGCCUCUCUGGAUUCCUCGUCACUCAGCAGGGCAUCUCUGAGAGAAAUGCC [U14C U39C], the self-cleavage was determined as 1.

Turning to UACGUAGGUGGUUCUCCCCUGAUAGUGCUAAGGGGGCCAGGAAGUUUGGACUGGGCAGAGCUCAACACAGCGUGGCAAAGUGGCUGUGGCUAGACUGCCUCUCUGGAUUCCUCGUCACUCAGCAGGGCAUCUCUGAGAGAAAUGCC [U14C U39A], the self-cleavage turned out to be 1.12.

Take UACGUAGGUGGUUCUCCCCUGAUAGUGCUAAGGGGGCCUGGAAGUUUGGACCGGGCAGAGCUCAACACAGCGUGGCAAAGUGGCUGUGGCUAGACUGCCUCUCUGGAUUCCUCGUCACUCAGCAGGGCAUCUCUGAGAGAAAUGCC [U14C U52C]: the self-cleavage is 1.21.

As to UACGUAGGUGGUUCUCCCCUGAUAGUGCUAAGGGGGCCUGGAAGUUUGGACGGGGCAGAGCUCAACACAGCGUGGCAAAGUGGCUGUGGCUAGACUGCCUCUCUGGAUUCCUCGUCACUCAGCAGGGCAUCUCUGAGAGAAAUGCC [U14C U52G], the self-cleavage came to 1.51.

On to UACGUAGGUGGUUCUCCCCUGAUAGUGCUAAGGGGGCCUGGAAGUUUGGACUGGGCAGAGCUCAACACAGCGUGGCAAAGUGGCUGUGGCUAGACUGCCUCACUGGAUUCCUCGUCACUCAGCAGGGCAUCUCUGAGAGAAAUGCC [U14C U102A], for which the self-cleavage turned out to be 1.67.

For UACGUAGGUGGUUCUCCCCUGAUAGUGCUAAGGGGGCCUGGAAGUUUGGACUGGGCAGAGCUCAACACAGCGUGGCAAAGUGGCUGUGGCUAGACUGCCUCUCAGGAUUCCUCGUCACUCAGCAGGGCAUCUCUGAGAGAAAUGCC [U14C U104A], the self-cleavage worked out at 1.04.

Turning to UACGUAGGUGGUUCUCCCCUGAUAGUGCUAAGGGGGCCUGGAAGUUUGGACUGGGCAGAGCUCAACACAGCGUGGCAAAGUGGCUGUGGCAAGACUGCCUCUCUGGAUUCCUCGUCACUCAGCAGGGCAUCUCUGAGAGAAAUGCC [U14C U91A], the self-cleavage was 0.91.

Regarding UACGUAGGUGGUUGUCCCCUGAUAGUGCUAAGGGGGCCUGGAAGUUUGGACUGGGCAGAGCUCAACACGGCGUGGCAAAGUGGCUGUGGCUAGACUGCCUCUCUGGAUUCCUCGUCACUCAGCAGGGCAUCUCUGAGAGAAAUGCC [U14G A69G], the self-cleavage was 0.42.

For UACGUAGGUGGUUCUCCCCUGAUAGUGCUAAGGGGGCCUGGAAGUUAGGACUGGGCAGAGCUCAACACAGCGUGGCAAAGUGGCUGUGGCUAGACUGCCUCUCUGGAUUCCUCGUCACUCAGCAGGGCAUCUCUGAGAGAAAUGCC [U14C U47A], the self-cleavage worked out at 1.17.

As for UACGUAGGUGGUUCUCCCCUGAUAGUGCUAAGGGGGCCUGGAAGUUUGGACUGGGCAGAGCACAACACAGCGUGGCAAAGUGGCUGUGGCUAGACUGCCUCUCUGGAUUCCUCGUCACUCAGCAGGGCAUCUCUGAGAGAAAUGCC [U14C U62A], the self-cleavage turned out to be 0.1.

Take UACGUAGGUGGUUCUCCCCUGAUAGUGCUAAGGGGGCCUGGAAGUUUGGACUGGGCAGAGCCCAACACAGCGUGGCAAAGUGGCUGUGGCUAGACUGCCUCUCUGGAUUCCUCGUCACUCAGCAGGGCAUCUCUGAGAGAAAUGCC [U14C U62C]: the self-cleavage amounted to 0.09.

Consider UACGUAGGUGGUUCUCCCCUGAUAGUGCUAAGGGGGCCUGGAAGUUUGGACUGGGCAGAGCUCAACACAGCGUGGCAAAGUGGCUGUGGCUAGACUGCCUCUCUGGAUUCCUCGUCACUCAGCAGGGCAUCCCUGAGAGAAAUGCC [U14C U132C], for which the self-cleavage was 1.43.

As for UACGUAGGUGGUUCUCCCCUGAUAGUGCUAAGGGGGCCUGGAAGUUUGGACUGGGCAGAGCUCAACACAGCGUGGCAAAGUGGCUGUGGCUAGACUGCCUCUCUGGAUUCCUCGUCACUCAGCAGGGCAUCACUGAGAGAAAUGCC [U14C U132A], the self-cleavage is 0.87.

As for UACGUAGGUGGUUGUCCCCUGAUAGUGCUAAGGGGGCCUGGAAGUUUGGUCUGGGCAGAGCUCAACACAGCGUGGCAAAGUGGCUGUGGCUAGACUGCCUCUCUGGAUUCCUCGUCACUCAGCAGGGCAUCUCUGAGAGAAAUGCC [U14G A50U], the self-cleavage is 1.14.

As for UACGUAGGUGGUUGUCCCCUGAUAGUGCUAAGGGGGCCUGGAAGUUUGGACUGGGCAGAGCUCAACUCAGCGUGGCAAAGUGGCUGUGGCUAGACUGCCUCUCUGGAUUCCUCGUCACUCAGCAGGGCAUCUCUGAGAGAAAUGCC [U14G A67U], the self-cleavage was 0.39.

Take UACGUAGGUGGUUCUCCCCUGAUAGGGCUAAGGGGGCCUGGAAGUUUGGACUGGGCAGAGCUCAACACAGCGUGGCAAAGUGGCUGUGGCUAGACUGCCUCUCUGGAUUCCUCGUCACUCAGCAGGGCAUCUCUGAGAGAAAUGCC [U14C U26G]: the self-cleavage came out at 1.61.

As to UACGUAGGUGGUUCUCCCCUGAUAGCGCUAAGGGGGCCUGGAAGUUUGGACUGGGCAGAGCUCAACACAGCGUGGCAAAGUGGCUGUGGCUAGACUGCCUCUCUGGAUUCCUCGUCACUCAGCAGGGCAUCUCUGAGAGAAAUGCC [U14C U26C], the self-cleavage was found to be 1.12.

UACGUAGGUGGUUCUCCCCUGAUAGUGCUAAGGGGGCCUGGAAGUUUGGACUGGGCAGAGCUCAACACAGCGUGGCAAAGUGGCUGUGGCUAGACCGCCUCUCUGGAUUCCUCGUCACUCAGCAGGGCAUCUCUGAGAGAAAUGCC [U14C U96C]: the self-cleavage came out at 0.18.

For UACGUAGGUGGUUCUCCCCUGAUAGUGCUAAGGGGGCCUGGAAGUUUGGACUGGGCAGAGCUCAACACAGCGUGGCAAAGUGGCUGUGGCUAGACUGCCUCUCUGGAUUCCUCGACACUCAGCAGGGCAUCUCUGAGAGAAAUGCC [U14C U115A], the self-cleavage stood at 1.45.

Regarding UACGUAGGUGGUUCUCCCCUGAUAGUGCUAAGGGGGCCUGGAAGGUUGGACUGGGCAGAGCUCAACACAGCGUGGCAAAGUGGCUGUGGCUAGACUGCCUCUCUGGAUUCCUCGUCACUCAGCAGGGCAUCUCUGAGAGAAAUGCC [U14C U45G], the self-cleavage is 1.34.

As to UACGUAGGUGGUUGUCCCCUGAUGGUGCUAAGGGGGCCUGGAAGUUUGGACUGGGCAGAGCUCAACACAGCGUGGCAAAGUGGCUGUGGCUAGACUGCCUCUCUGGAUUCCUCGUCACUCAGCAGGGCAUCUCUGAGAGAAAUGCC [U14G A24G], the self-cleavage was found to be 0.79.

On to UACGUAGGUGGUUCUCCCCUGAUAGUGCUAAGGGGGCCUGGAAGUUUGGACUGGGCAGAGCUCAACACAGCGUGGCAAAGUGGCUGUGGCUAGACUGCCUCUCUGGAUUCCUCGUCACUCAGCAGGGCAUCUCCGAGAGAAAUGCC [U14C U134C], for which the self-cleavage came out at 1.34.

In the case of UACGUAGGUGGUUCUCCCCUGAUAGUGCUAAGGGGGCCUGGAAGUUUGGACUGGGCAGAGCUCAACACAGCGUGGCAAAGUGGCUGUGGCUAGACUGCCUCUCUGGAUUCCUCGUCACUCAGCAGGGCAUCUCAGAGAGAAAUGCC [U14C U134A], the self-cleavage amounted to 0.84.
